Data taken from the domain aggregation screens of Martell et al. (2025).

Assay: soluble fraction after stress (log2 fold change); higher = more stays soluble; pooled small domains, quantitative proteomics
Details: stress: 75 degC
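Also: 20 min heating vs room temperature control held 20 min.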

Sequence | soluble fraction (log2)
HMERAFRILELFDLKQDELPITEIAERTGLPISTAHRLLSTLETLGYIAQNPDNGRYRLGLQTFVLGSR | -1.86
HMERAPAYPDGLTQREVEVLRLIASGKTDREIAEELFIGVRTVSTHVGNILNKTNSANRTEAASYANQQGL | -0.0632
HMEREQNIAQGREVVQRELKRLGLTDVFTVEDIGRALKFDDIDEFLSKVGFGDIQTAKITGAIALMQQALR | -0.0649
HMEREQNIEHGRAIVERELKRLGLSDVYTIADIATALRHDDVDQFLAKIGFGDIQSTQIGGAIAALQQR | 0.0025
HMEREQPFAVTEAYRGMRLDRFLQAMLPRMSRAAIQDAIDNRVRLGSGRAAKASLRPAIGDTVFFGQRI | -1.17
HMERFRQVNAGMTRDDIYQLLGKPTEKTPFPLKNEEVWSWRHQADGQTVALFNIHLDPDGRVTTTSQSMDL | 0.739
HMERFVVISKDKYANLREEASTNSKVLAKVDNSYLIYNTNTYNENKDWYSVQIERDGNYYQVGYIHKSQL | -1.61
HMERLKRVTLSLNQSNYSVTEIARRLQAITGIKDITVVEDEQAVYLKVDPATFDLTLAQQAV | -0.474
HMERLLVSKINGMITEAKVSVEDVVKVVASRGHYPEVKSIDEYPDDFLSRWVVPNFKKIVEMINANKEA | -0.979
HMERMTSTEILTRDFLTTNSKIVKKSTIEELSEIIHVSPATIIRTVKKMGYSGFSEYKNELINQ | -1.73
HMERPEVVAYRLAYASAESLRPALGLVASPSDLEIDERTNTLIVRAVPSVQERVAELVASLDI | -0.492
HMERPKSLRELALEHLRNSIIDGSLKMGQVLSERKISEELGVSKSPVREALAQLRDEGLVSIEPQKGARV | 0.14
HMERPLFVIEDYRRFAGNEVEISLKKGGKKIRGVIAGTPSDAEVTVRTQGGETTVPLGDVKRAHLVYV | -0.00192
HMERRDEINSVVSRYVSAITEGKYDLAEVDETGKLRVQTEGREVLPEALSRGTLEQFYFAFRMAVGSI | 0.04
HMERTQSIEAAREQLGEVTKDNVFETETLGALAILKENEPGEYAKIKADLKGKINMNDLERAVKKAAADQR | 1.02
HMERYFVLVIYDIVDNKKRLKLSKYLLGYGIRVQKSAFEMMITKEKYNKLIKELPTYIEEGEDSIRLY | 0.0566
HMERYLLRDNIPNALHGERLDRVIAIMTGLSRSAVSALIKSNQVLRNGQIAQSISEKVVEGDELEVHLEP | -0.832
HMESDAIAAAIAALPARYREVLLLRYDNGFSYSEISKALDMTEAAVRKTVQRAKEALQRTLQIQEEDT | -0.767
HMESDRVAHVVAPGETLFSISGKYGIGMGELVAANPVLESRPPRTGDTLLIRLPENPLPAETDAETLS | 0.643

Sequence | soluble fraction (log2)
HMESIAEIDRMNAKIFMDEFQDSLSIMQKTTNPETFFSRYDLAMERLDNMVELQQKGIKFTSDLSSLKAQ | 0.0865
HMESIEGMYKISLLRKQGNAYVIFEDENKEAVEHIFPEKPTALELGTKVIEMFEYKERYDGLI | -0.343
HMESILDDFPGLGEKRKKALLEHFGSISKIKAATVGQLREVDGIGFETAAALREFLDANFPA | 0.188
HMESIPDELLEAFKQDPAFKQAFYALTAGRQRGYIIHFSQPKQSQTRIGRIEKYKEQIFNGIGLN | -1.39
HMESKPLTPSEIKKLRMDANMTQAGLAEVLGMTVKAVEAWESGRNIPSGAADKILRVMQKHPSVIGMMQS | 0.0281
HMESLNDRIKLVFKDSGLTQMDISKRLNIAQSSVSGIISGKANPSKRTLADIADRFDVNLEWLRDGTGPMK | 0.474
HMESLSHRQKSIVDWVQKNGYASIERMAEQFEVSAQTIRRDVIELSERRILQRHHGGASLPAG | -0.211
HMESNDSNIEDDFYEGLKSMRKGDLKMSVVFFTRVIEKKPTFAEAWNRRATVYYMLGKFDKSMFDINETLK | -0.354
HMESPELIHILKEAEWQIWQQIQGLPEKQRIAMTLFAMDDLSYQEIADVMKVSVSAIESLLFRARTQLKKY | -0.546
HMESPLEQLTNRELQTLQMLGKGLSTKQIAAQLNLSVKTVETYRENLKRKLNLDSGSELIRYAIHRSNE | 0.532
HMESPLNPTDVRRAAMDLLARREHGVEELRLKLKRRFGREEDFETIATEQLQRLVDEDLLSDTRF | -0.355
HMESRETGLPVVIISDGRILQDNLKRRGLDLSWLDKQLAEHGYPDFRDVFLLTVDEAGGVYFVPRE | 0.438
HMESSNLESQLKKGIVPNLNGLSAKDALFLLENSGFNVKLYGMGSVKKQSLEAGKKYNKGDKITLIL | 0.151
HMESSYKGFILDIETRQFSPTLIQRRGIAINPSGIVETTTEFSFATQEKVLIEDLKLIIDELDLRADY | -3.69
HMESTLNYSQFLSLVNEDRVAEVVIQGKELYVTDVNRSRFKVYAPPDPELIGLLRQKRVIISAKP | -0.56
HMESVDRIYERVRRYADDVGTAKIPMKELDDDGPLGTAVSRIRERRKRGELTEEWEARFETLPGWTWAA | 0.045
HMESWEDSNIANEFKSTIKIAEKRLAEGGDHPELLEKLEALKQAIINENQTEASKLDDQVNDILFDMDD | 0.602
HMETEAGIKAYLSSSMIKGIGPVTAQRIVERFGKRTLYVLDQMPEKLLDISGISEAKLEEILNGYRKS | -0.536
HMETFGEKDLDELIGRNVELITHDGKVREGLVDSVDRYNVSLVRYLDAGEVAMMVRRREVKAVRLK | -0.703
